Reference: paper doi:10.1101/467423 (bioRxiv, 2018)

Biological target: the molecule itself
Experiment: negative-stain electron microscopy

B1: Plasmodium falciparum actin I K270M mutant (natural protein)
chain: not shown
B1: binds.
